Our source for the stoichiometry N, Ki and decrease of the steady-state velocity of dUTPase on Stl addition values is article PMC6627510, “The Role of a Key Amino Acid Position in Species-Specific Proteinaceous dUTPase Inhibition” (Biomolecules, 2019).

pKi: −log10 of the molar value.

Assay [1] deals with Escherichia coli dUTPase Q93H mutant (Escherichia coli). Kind of assay: crystal structure; EcDUT^Q93H with 5 mM dUPNPP; hanging drop, 0.1 M TRIS, 18-33.75 % PEG 3350, 400 mM NaAc, pH 7.5, 295 K.
The target of assay [2] is Escherichia coli dUTPase Q93R mutant (Escherichia coli). Kind of assay: steady-state enzyme inhibition; 50 nM dUTPase, 0-400 nM Stl, 5 min pre-incubation at 20 °C, 30 µM dUTP; 1 mM HEPES, 150 mM KCl, 5 mM MgCl2, 40 µM phenol red, pH 7.5; quadratic equation fitted, K is the Ki (IC50).
Assay [3] has as its target Escherichia coli dUTPase Q93H mutant (Escherichia coli). The assay is described as above.
In assay [4] the target is Escherichia coli dUTPase Q93R mutant (Escherichia coli).
The target of assay [5] is Escherichia coli dUTPase Q93H mutant (Escherichia coli).

The term stoichiometry N denotes a count of units in the complex or per binding partner. The term pKi denotes the Ki on a negative log10 scale, so that one unit is a factor of ten. Low readings indicate a high Ki, high ones a low Ki.

With “Escherichia coli dUTPase Q93H mutant (enzyme)”, the stoichiometry N in assay [1] stood at 3.

Turning to “Stl_(SaPIbov1) protein (staphylococcal repressor) (natural protein)”, the pKi was 8.23 in assay [2] and 8.32 in assay [3]. Also, the figures for the decrease of the steady-state velocity of dUTPase on Stl addition in assay [4] and in assay [5] were 47% and 58%, respectively.
